Experimental data published in patent publication US20200148774A1 (Genentech, published 2020).
Where a chain is given by its changes, count along the chain named. Read-outs that look alike come from different tables or passages of the source. Values belong to the binder of their own block, whether it stands above or below them.

Columns and labels:
[1] = target: T1, human CLL-1 on cells (endogenous on HL-60, EOL-1 and other AML cell lines and CD14+ monocytes); recombinant on … (human, UniProt Q5QGZ9 1-265); assay: Scatchard, EOL-1 cells
T1 construct: also called 293AD/huCLL-1; tumor-derived CLL-1
T1 sequence: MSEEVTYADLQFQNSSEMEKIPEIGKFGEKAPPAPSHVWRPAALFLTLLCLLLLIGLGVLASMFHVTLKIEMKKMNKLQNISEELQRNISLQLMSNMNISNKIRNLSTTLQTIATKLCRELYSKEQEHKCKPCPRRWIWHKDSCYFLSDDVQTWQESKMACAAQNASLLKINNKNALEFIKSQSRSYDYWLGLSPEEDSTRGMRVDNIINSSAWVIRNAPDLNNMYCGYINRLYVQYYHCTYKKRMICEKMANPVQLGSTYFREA

[2] = target: T1, human CLL-1 on cells (endogenous on …); assay: Scatchard, 293AD/huCLL-1 cells
Procedure: (§1) Competition assay mixtures of 50 μL volume containing a fixed concentration of [1¹²⁵] labeled antibody and decreasing concentrations of serially diluted, unlabeled antibody were placed into 96-well plates. HEK293AD cells stably expressing recombinant hu or cynoCLL-1 or HL-60 tumor cells expressing endogenous CLL-1 were cultured in growth media at 37° C. in 5% CO₂. Cells were detached from the flask using Sigma Cell Dissociation Solution and were washed with binding buffer, which consisted of Dulbecco's Modified Eagle Medium (DMEM) with 1% bovine serum albumin (BSA), […] and 0.1% sodium azide. The washed cells were added to the 96 well plates at a density of 100,000 cells in 0.2 mL of binding buffer. […] The final concentration of the unlabeled antibody in the competition assay ranged from 1000 nM through ten 2-fold dilution steps to a 0 nM buffer-only assay. Competition assays were carried out in triplicate. Competition assays were incubated for 2 hours at room temperature. After the 2-hour incubation, the competition assays were transferred to a Millipore Multiscreen filter plate (Billerica, Mass.) and washed 4 times with binding buffer to separate the free from bound [I¹²⁵] labeled antibody. The filters were counted on a Wallac Wizard 1470 gamma counter (PerkinElmer Life and Analytical Sciences Inc.; Wellesley, Mass.). The binding data was evaluated using NewLigand software (Genentech), which uses the fitting algorithm of Munson and Robard to determine the binding affinity of the antibody (Munson and Robard 1980).

[3] = target: T2, cynomolgus CLL-1 on cells (recombinant on HEK293AD cells) (cynomolgus monkey); assay: Scatchard, 293AD/cynoCLL1 cells
T2 construct: also called 293AD/cynoCLL-1; 293AD/cynoCLL1
T2 chain: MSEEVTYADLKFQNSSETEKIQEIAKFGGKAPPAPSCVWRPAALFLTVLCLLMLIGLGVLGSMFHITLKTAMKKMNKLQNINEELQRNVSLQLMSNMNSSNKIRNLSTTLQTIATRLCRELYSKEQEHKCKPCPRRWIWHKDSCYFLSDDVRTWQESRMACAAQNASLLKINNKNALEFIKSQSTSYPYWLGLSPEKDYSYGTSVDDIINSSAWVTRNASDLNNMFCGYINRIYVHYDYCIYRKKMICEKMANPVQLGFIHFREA
Procedure: as §1, with “After the 2-hour incubation, the competition assays were transferred to a Millipore Multiscreen filter plate (Billerica, Mass.) and washed 4 times with binding buffer to separate the free from bound [I¹²⁵] labeled antibody.” left out

[4] = target: T3, recombinant human CLL-1 extracellular domain (ECD, amino acids 65-265) fused to an N-terminal Flag (human, UniProt Q5QGZ9 65-265); assay: SPR (Biacore T200), IgG captured by anti-human Fc, CLL-1 as analyte
T3 construct: The construct and the K244Q SNP are stated for the immunogen; they are not written as a piece; also called huCLL-1-Flag; huCLL-1
T3 chain: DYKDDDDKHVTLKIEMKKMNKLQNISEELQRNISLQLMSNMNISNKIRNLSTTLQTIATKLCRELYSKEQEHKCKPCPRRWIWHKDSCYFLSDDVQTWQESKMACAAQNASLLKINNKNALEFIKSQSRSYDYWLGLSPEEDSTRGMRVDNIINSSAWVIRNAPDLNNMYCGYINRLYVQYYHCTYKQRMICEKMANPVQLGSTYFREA

[5] = target: T4, recombinant cynomolgus CLL-1 extracellular domain (ECD, amino acids 65-265) fused to an N-terminal Flag (cynomolgus monkey); assay: as above
T4 construct: Construct stated for the immunogen; also called CynoCLL-1 Flag; cynoCLL-1
T4 chain: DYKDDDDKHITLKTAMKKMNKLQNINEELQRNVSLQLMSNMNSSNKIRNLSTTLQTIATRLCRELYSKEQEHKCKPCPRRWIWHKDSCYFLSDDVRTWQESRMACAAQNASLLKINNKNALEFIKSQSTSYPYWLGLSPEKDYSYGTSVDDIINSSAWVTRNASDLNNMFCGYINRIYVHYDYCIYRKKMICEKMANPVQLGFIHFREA

[6] = target: T3, recombinant human CLL-1 extracellular …; assay: as above
[7] = target: T4, recombinant cynomolgus CLL-1 …; assay: as above
[8] = target: T3, recombinant human CLL-1 extracellular …; assay: SPR (Biacore T200), IgG captured by anti-human Fc, human CLL-1 as analyte
Procedure: The binding affinity of the antibodies in this section was determined by BIAcore™ T200 Format. Briefly, BIAcore™ research grade CM5 chips were activated with 1-ethyl-3-(3-dimethylaminopropyl) carbodiimide (EDC) and N-hydroxysuccinimide (NHS) reagents according to the supplier's instructions. Goat anti-human Fc IgGs were coupled to the chips to achieve approximately 10,000 response units (RU) in each flow cell. Unreacted coupling groups were blocked with 1M ethanolamine. For kinetics measurements, antibodies were captured to achieve approximately 300 RU. Three-fold serial dilutions of human CLL-1 was injected in HBS-P buffer (0.01M HEPES pH7.4, 0.15M NaCl, 0.005% surfactant P20) at 25° C. with a flow rate of 30 μl/min. Association rates (kon) and dissociation rates (koff) were calculated using a 1:1 Langmuir binding model (BIAcore™ T200 Evaluation Software version 2.0). The equilibrium dissociation constant (Kd) was calculated as the ratio koff/kon.

[9] = target: T1, human CLL-1 on cells (endogenous on …); assay: Scatchard, HL-60 cells
Procedure: as §1, with “After the 2-hour incubation, the competition assays were transferred to a Millipore Multiscreen filter plate (Billerica, Mass.) and washed 4 times with binding buffer to separate the free from bound [I¹²⁵] labeled antibody.” left out

hCD3εγ = target: T5, hCD3εγ (human, UniProt P07766 23-126; P09693 23-116); assay: SPR (Biacore)
T5 construct: also called human CD3εγ
T5 sequence (P07766 23-126, chain 1 of 2): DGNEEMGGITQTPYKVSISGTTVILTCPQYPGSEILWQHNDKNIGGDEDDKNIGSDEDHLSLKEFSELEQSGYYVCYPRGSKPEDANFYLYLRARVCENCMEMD
T5 sequence (P09693 23-116, chain 2 of 2): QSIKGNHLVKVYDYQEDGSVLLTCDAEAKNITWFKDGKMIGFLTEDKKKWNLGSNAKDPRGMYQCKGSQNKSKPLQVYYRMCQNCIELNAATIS

cynoCD3εγ = target: T6, cynoCD3εγ (cynomolgus monkey, UniProt Q95LI5 22-117; Q95LI7 23-113); assay: SPR (Biacore)
T6 construct: also called cynomolgus CD3εγ
T6 sequence (looked up) 1: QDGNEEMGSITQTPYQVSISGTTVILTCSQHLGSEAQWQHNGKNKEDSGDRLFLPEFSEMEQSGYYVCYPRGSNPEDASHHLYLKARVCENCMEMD
T6 sequence (looked up) 2: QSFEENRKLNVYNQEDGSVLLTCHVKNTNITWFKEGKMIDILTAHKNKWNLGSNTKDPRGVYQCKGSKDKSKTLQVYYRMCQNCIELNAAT

[10] = target: T2, cynomolgus CLL-1 on cells (recombinant …); assay: FACS, stable cell line expressing recombinant cyno CLL-1
[11] = target: T1, human CLL-1 on cells (endogenous on …); assay: FACS, stable cell line expressing recombinant hu CLL-1 and AML tumor cell lines

B1: 21C9.L2H3 (antibody, V domains shown)
VH: EVQLVQSGAEVKKPGASVKVSCKASGYTFTDYYLDWVRQAPGQGLEWIGRVNPYNGGTIYNQKFKGRVTLTRDTSTSTAYLELSSLRSEDTAVYYCARDHYRYDPLLDYWGQGTLVTVSS
VL: DIQMTQSPSSLSASVGDRVTITCKASQDVSTAVAWFQQKPGKAPKLLIYSPSYRYTGVPSRFSGSGSGTDFTLTISSLQPEDFATYYCQQLYSTPYTFGQGTKVEIK
notes: humanized, assessed in the form of an IgG; also called humanized 21C9.L2H3; h21C9
Kd [1]: 0.74 nM
Kd [2]: 3.6 nM
Kd [3]: 2.4 nM
Kd [4]: 11.7 nM
Kd [5]: 9.47 nM
Kd [6]: 15.1 nM
Kd [7]: 9.3 nM
Kd [8]: 9.79 nM

B2: 6E7.L4H1eA54 (antibody, V domains shown)
VH: EVQLVQSGAEVKKPGASVKVSCKASGYSFTDYYMHWVRQAPGQGLEWIGRINPYAGAAFYSQNFKDRVTLTVDTSTSTAYLELSSLRSEDTAVYYCAIERGADLEGYAMDYWGQGTLVTVSS
VL: DIQMTQSPSSLSASVGDRVTITCRASQSVSTSSYNYMHWYQQKPGKPPKLLIKYASNLESGVPSRFSGSGSGTDFTLTISSLQPEDFATYYCQHSWEIPLTFGQGTKVEIK
notes: humanized IgG; also called 6E7.L4H1eN54A; h6E7A
Kd [1]: 0.32 nM
Kd [9]: 0.64 nM
Kd [2]: 0.89 nM
Kd [3]: 0.9 nM
Kd [6]: 3.08 nM
Kd [7]: 3.14 nM

B3: 38E4v1 (antibody, V domains shown)
VH: EVQLVQSGAEVKKPGASVKVSCKASGFTFTSYYIHWVRQAPGQGLEWIGWIYPENDNTKYNEKFKDRVTITADTSTSTAYLELSSLRSEDTAVYYCARDGYSRYYFDYWGQGTLVTVSS
VL: DIVMTQSPDSLAVSLGERATINCKSSQSLLNSRTRKNYLAWYQQKPGQSPKLLIYWTSTRKSGVPDRFSGSGSGTDFTLTISSLQAEDVAVYYCKQSFILRTFGQGTKVEIK
notes: also called h38E4v1
Kd (hCD3εγ): 0.5 nM
Kd (cynoCD3εγ): 0.7 nM

B4: 40G5c (antibody, V domains shown)
VH: B3 VH with F27Y, S31N, E54G, N55D, D56G, D66G, V68A, I70L, G100S, R103N
VL: B3 VL with S49P, T57A, K61E, K95T
notes: also called h40G5c
Kd (hCD3εγ): 12 nM
Kd (cynoCD3εγ): 14 nM

Continued, values first:

binding result [10]: binds
binding result [11]: binds
B5: m28H12 (antibody, V domains shown)
VH: QVQLQQSGAELVKPGASVKLSCTASGFNIKDTYMHWVKQRPEQGLEWIGRIDPANGDTDYDPKFQGKATVTADTSSNTAYLQLSSLTSEDTAVYYCTISGPPYYVMDYWGQGTSVTVSS
VL: DIQMTQSPASLAVSLGQRATISCRASQSVSSSSYSYMHWYQQKPGQPPKLLIKYASNLESGVPARFSGRGSGTDFTLNIHPVEEEDTATYYCQHSWEIPYTFGGGTRLEIK
notes: murine monoclonal antibody; also called murine 28H12

binding result [10]: binds
binding result [11]: binds
B6: m20B1 (antibody, V domains shown)
VH: EVQLQQSGPELVKPGALVKISCKASGYTFTSYDINWLKQRPGQGLEWIGWIYPGDGTTEYNERFKGKATLTADKSSSTAYLQLSSLTSENSAVYFCARSYDYDYAMDYWGQGTSVTVSS
VL: DIVLTQSPAIMSASPGEKVTMTCSASSSISYMYWYQQKPGTSPKRWIYDTSKLASGVPARFSGSGSGTSYSLTISSMEAEDAATYYCHQRSSWTFGGGTKLEIK
notes: murine monoclonal antibody; also called murine 20B1
